Experimental findings from patent US20220306715A1 (SHATTUCK LABS, published 2022) are described below.

For this assay, the target named is IL-6. Kind of assay: cell-based or functional assay.
Chain of IL-6 (P05231 30-212): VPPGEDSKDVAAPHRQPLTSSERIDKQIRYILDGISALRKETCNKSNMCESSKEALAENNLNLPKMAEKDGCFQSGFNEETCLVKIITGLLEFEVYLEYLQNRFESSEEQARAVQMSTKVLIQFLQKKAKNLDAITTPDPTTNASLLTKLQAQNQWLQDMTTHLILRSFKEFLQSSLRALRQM

B1: human IL-6R-Fc-IL-35 chimeric protein (Fc fusion)
chain 1: ELLDPCGYISPESPVVQLHSNFTAVCVLKEKCMDYFHVNANYIVWKTNHFTIPKEQYTIINRTASSVTFTDIASLNIQLTCNILTFGQLEQNVYGITIISGLPPEKPKNLSCIVNEGKKMRCEWDGGRETHLETNFTLKSEWATHKFADCKAKRDTPTSCTVDYSTVYFVNIEVWVEAENALGKVTSDHINFDPVYKVKPNPPHNLSVINSEELSSILKLTWTNPSIKSVIILKYNIQYRTKDASTWSQIPPEDTASTRSSFTVQDLKPFTEYVFRIRCMKEDGKGYWSDWSEEASGITYEDRPSKAPSFWYKIDPSHTQGYRTVQLVWKTLPPFEANGKILDYEVTLTRWKSHLQNYTVNATKLTVNLTNDRYLATLTVRNLVGKSDAAVLTIPACDFQATHPVMDLKAFPKDNMLWVEWTTPRESVKKYILEWCVLSDKAPCITDWQQEDGTVHRTYLRGNLAESKCYLITVTPVYADGPGSPESIKAYLKQAPPSKGPTVRTKKVGKNEAVLEWDQLPVDVQNGFIRNYTIFYRTIIGNETAVNVDSSHTEYTLSSLTSDTLYMVRMAAYTDEGGKDGPEFTFTTPKFAQGEIEGSGSRKGGKRGSKYGPPCPPCPAPEFLGGPSVFLFPPKPKDQLMISRTPEVTCVVVDVSQEDPEVQFNWYVDGVEVHNAKTKPREEQFNSTYRVVSVLTVLHQDWLSGKEYKCKVSSKGLPSSIEKTISNATGQPREPQVYTLPPSQEEMTKNQVSLTCLVKGFYPSDIAVEWESNGQPENNYKTTPPVLDSDGSFFLYSRLTVDKSRWQEGNVFSCSVLHEALHNHYTQKSLSLSLGKDEGGEDGSGSRNLPVATPDPGMFPCLHHSQNLLRAVSNMLQKARQTLEFYPCTSEEIDHEDITKDKTSTVEACLPLELTKNESCLNSRETSFITNGSCLASRKTSFMMALCLSSIYEDLKMYQVEFKTMNAKLLMDPKRQIFLDQNMLAVIDELMQALNFNSETVPQKSSLEEPDFYKTKIKLCILLHAFRIRAVTIDRVMSYLNAS
chain 2: LAPRRCPAQEVARGVLTSLPGDSVTLTCPGVEPEDNATVHWVLRKPAAGSHPSRWAGMGRRLLLRSVQLHDSGNYSCYRAGRPAGTVHLLVDVPPEEPQLSCFRKSPLSNVVCEWGPRSTPSLTTKAVLLVRKFQNSPAEDFQEPCQYSQESQKFSCQLAVPEGDSSFYIVSMCVASSVGSKFSKTQTFQGCGILQPDPPANITVTAVARNPRWLSVTWQDPHSWNSSFYRLRFELRYRAERSKTFTTWMVKDLQHHCVIHDAWSGLRHVVQLRAQEEFGQGEWSEWSPEAMGTPWTESRSPPAENEVSTPMQALTTNKDDDNILFRDSANATSLPVQDSSSVPLPGSGSDEGGEDGSKYGPPCPPCPAPEFLGGPSVFLFPPKPKDQLMISRTPEVTCVVVDVSQEDPEVQFNWYVDGVEVHNAKTKPREEQFNSTYRVVSVLTVLHQDWLSGKEYKCKVSSKGLPSSIEKTISNATGQPREPQVYTLPPSQEEMTKNQVSLTCLVKGFYPSDIAVEWESNGQPENNYKTTPPVLDSDGSFFLYSRLTVDKSRWQEGNVFSCSVLHEALHNHYTQKSLSLSLGKRKGGKRGSGSRKGPPAALTLPRVQCRASRYPIAVDCSWTLPPAPNSTSPVSFIATYRLGMAARGHSWPCLQQTPTSTSCTITDVQLFSMAPYVLNVTAVHPWGSSSSFVPFITEHIIKPDPPEGVRLSPLAERQLQVQWEPPGSWPFPEIFSLKYWIRYKRQGAARFHRVGPIEATSFILRAVRPRARYYVQVAAQDLTDYGELSDWSLPATATMSLGK
B1: the “EC50 of induction of apoptosis in IL-6 dependent DS-1 cells cultured 24 hours with IL-6 (caspase 3/7 luciferase assay)” value worked out at 14.1 nM.
